The results in this text go back to PMC5945783, “Relationship Between Homodimeric Glucocorticoid Receptor and Transcriptional Regulation Assessed via an In Vitro Fluorescence Correlation Spectroscopy-Microwell System” (Scientific Reports, 2018).

Data set [1] deals with the molecule itself. The data set can be described thus: fluorescence correlation spectroscopy (FCS), particle brightness (counts per particle) analysis; FCS-microwell system: single transfected U2OS cell lysed in a 113 pL PDMS microwell; absence of Dex; lysis buffer with 0.1% SDS and Benzonase; bimolecular reaction model fitted in the 0-50 nM range; dimer to monomers.
Data set [2] concerns the molecule itself. The data set can be described thus: fluorescence correlation spectroscopy (FCS), particle brightness (counts per particle) analysis; FCS-microwell system: single transfected U2OS cell, 500 nM Dex at 37 °C for 20 min, then lysed in a 113 pL PDMS microwell; lysis buffer with 0.1% SDS and Benzonase; bimolecular reaction model fitted in the 0-50 nM range; dimer to monomers.

Changes are numbered by the printed parent chain. Numbers in names are those of the source.

B1: EGFP-fused human glucocorticoid receptor α C421G mutant (natural protein, UniProt P04150 1-777, looked up)
chain: MDSKESLTPGREENPSSVLAQERGDVMDFYKTLRGGATVKVSASSPSLAVASQSDSKQRRLLVDFPKGSVSNAQQPDLSKAVSLSMGLYMGETETKVMGNDLGFPQQGQISLSSGETDLKLLEESIANLNRSTSVPENPKSSASTAVSAAPTEKEFPKTHSDVSSEQQHLKGQTGTNGGNVKLYTTDQSTFDILQDLEFSSGSPGKETNESPWRSDLLIDENCLLSPLAGEDDSFLLEGNSNEDCKPLILPDTKPKIKDNGDLVLSSPSNVTLPQVKTEKEDFIELCTPGVIKQEKLGTVYCQASFPGANIIGNKMSAISVHGVSTSGGQMYHYDMNTASLSQQQDQKPIFNVIPPIPVGSENWNRCQGSGDDNLTSLGTLNFPGRTVFSNGYSSPSMRPDVSSPPSSSSTATTGPPPKLGLVCSDEASGCHYGVLTCGSCKVFFKRAVEGQHNYLCAGRNDCIIDKIRRKNCPACRYRKCLQAGMNLEARKTKKKIKGIQQATTGVSQETSENPGNKTIVPATLPQLTPTLVSLLEVIEPEVLYAGYDSSVPDSTWRIMTTLNMLGGRQVIAAVKWAKAIPGFRNLHLDDQMTLLQYSWMFLMAFALGWRSYRQSSANLLCFAPDLIINEQRMTLPCMYDQCKHMLYVSSELHRLQVSYEEYLCMKTLLLLSSVPKDGLKSQELFDEIRMTYIKELGKAIVKREGNSSQNWQRFYQLTKLLDSMHEVVENLLNYCFQTFLDKTMSIEFPEMLAEIITNQIPKYSNGNIKKLLFHQK
notes: glucocorticoid receptor α, human, with C421G; also called EGFP-GR/C421G; GR/C421G; source: U2OS, transfected (ViaFect), in single-cell lysate
For the protein B1, the Kd in data set [1] was 400 nM; in data set [2], 220 nM.

B2: EGFP-fused human glucocorticoid receptor α A458T mutant (natural protein, UniProt P04150 1-777, looked up)
chain: B1 chain with G421C, A458T
notes: glucocorticoid receptor α, human, with A458T; also called EGFP-GR/A458T; GR/A458T; source: U2OS, transfected (ViaFect), in single-cell lysate
On to B2, for which the Kd in data set [1] worked out at 390 nM; in data set [2], 370 nM.
